These results are taken from article PMC11233879, “JrPHL8-JrWRKY4-JrSTH2L module regulates resistance to Colletotrichum gloeosporioides in walnut”.

One series deals with JrWRKY4 (walnut (Juglans)?, UniProt A0A2I4E3K4 1-517). The series is described as follows: EMSA; LightShift Chemiluminescent EMSA Kit (Beyotime); cold probe 100-fold; buffer, salt, pH and temperature not stated. Particulars: protein: recombinant; tags: pET32a fusion (Trx-His; article states His-tagged); label: biotin; blunt.
For a further series, the target named is T1, JrPHL8 (walnut (Juglans)?, UniProt A0A2I4DJV4 1-356).
T1 sequence: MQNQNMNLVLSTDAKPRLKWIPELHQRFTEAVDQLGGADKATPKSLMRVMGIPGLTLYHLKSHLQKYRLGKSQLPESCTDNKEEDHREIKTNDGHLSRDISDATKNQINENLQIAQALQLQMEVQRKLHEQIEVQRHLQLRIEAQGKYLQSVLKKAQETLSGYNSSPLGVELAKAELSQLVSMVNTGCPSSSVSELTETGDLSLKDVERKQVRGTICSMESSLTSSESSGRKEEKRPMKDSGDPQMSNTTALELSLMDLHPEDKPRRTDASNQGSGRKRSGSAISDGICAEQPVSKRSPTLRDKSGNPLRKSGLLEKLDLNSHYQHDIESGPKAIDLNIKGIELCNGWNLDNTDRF
The description is as above. The note with it: protein: recombinant; tags: His (pET32a fusion); chain copies: 2; label: biotin; blunt.

Sequence of JrWRKY4 (A0A2I4E3K4 entry or part of it): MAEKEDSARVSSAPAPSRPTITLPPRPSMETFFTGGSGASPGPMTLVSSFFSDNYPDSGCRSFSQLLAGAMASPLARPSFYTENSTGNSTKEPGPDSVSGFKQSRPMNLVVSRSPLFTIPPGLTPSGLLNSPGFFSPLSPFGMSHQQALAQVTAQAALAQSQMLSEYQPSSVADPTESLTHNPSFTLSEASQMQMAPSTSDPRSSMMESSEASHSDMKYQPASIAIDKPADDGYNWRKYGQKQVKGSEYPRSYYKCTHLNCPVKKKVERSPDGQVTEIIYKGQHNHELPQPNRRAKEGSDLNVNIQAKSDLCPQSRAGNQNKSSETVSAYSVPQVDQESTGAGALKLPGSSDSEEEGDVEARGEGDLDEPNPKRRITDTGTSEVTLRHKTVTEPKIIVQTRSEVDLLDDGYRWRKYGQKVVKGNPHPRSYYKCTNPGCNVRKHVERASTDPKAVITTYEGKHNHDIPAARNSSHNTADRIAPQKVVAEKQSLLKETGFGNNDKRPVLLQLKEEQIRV

B1: proJrSTH2L-Wbox (dsDNA)
DNA 1: AACCTAAACCCTTTGTGAAGTTGACCAGATCCTCAACCCGGGATGG
DNA 2: CCATCCCGGGTTGAGGATCTGGTCAACTTCACAAAGGGTTTAGGTT
On to B1, for which the binding result in the series with JrWRKY4 was “binds”.

B2: proJrWRKY4-MBS (dsDNA)
DNA 1: TTCACTATTACTGATATTCTCAACAGAAAAATGTCTAAGAGACAAT
DNA 2: ATTGTCTCTTAGACATTTTTCTGTTGAGAATATCAGTAATAGTGAA
Consider B2, for which, in the series with JrPHL8, the binding result is listed as “binds”.
